Five molecules from publication PMC3776556, “Crystal structures of the CPAP/STIL complex reveal its role in centriole assembly and human microcephaly” (eLife, 2013) can be followed below.

Experiment [1] relates to sas-4(RNAi) C. elegans embryos. In words: Embryonic viability after sas-4(RNAi). In kind it is in vivo. From the text: (§1) C. elegans strains carrying single-copy sas-4 transgenes were generated using MosSCI ([Frøkjær-Jensen et al., 2008]). To render the transgenes RNAi-resistant, a 500 bp region at the 5′ end of the sas-4 genomic sequence was re-encoded. The engineered sas-4 sequence was cloned into pCFJ151 with the promoter and 3′ UTR from sas-6, as well as a C-terminal GFP tag. pCFJ151 contains homology arms that direct transposase-mediated insertion of intervening sequence into the ttTi5606 Mos1 site on Chromosome II. Transgene integration was confirmed by PCR of regions spanning each side of the insertion. The genotypes of the strains used are: unc-119(ed9)III; ltSi85[pOD1550; Psas-6::SAS-4 reencoded::GFP; cb-unc-119(+)]II for WT SAS-4; and unc-119(ed9)III; ltSi177[pOD1551; Psas-6::SAS-4(1-556) reencoded::GFP; cb-unc-119(+)]II for SAS-4^ΔTCP.
Double-stranded sas-4 RNA was generated as described ([Oegema et al., 2001]) using DNA templates prepared by PCR. For experiments to quantify monopolar spindle formation, L4 hermaphrodites were injected with dsRNA and incubated at 20°C for 40 hr prior to dissection for imaging. For lethality assays, worms were maintained at 20°C. L4 hermaphrodites were injected with dsRNA and singled 24 hr post-injection. Adult worms were removed from the plates 48 hr post-injection, and hatched larvae and unhatched embryos were counted 24 hr later.

The subject of experiment [2] is sas-4(RNAi) C. elegans embryos. Briefly: Monopolar spindle assay after sas-4(RNAi). As to conditions: second division. In kind it is in vivo.
From the text: as §1
(§2) Double-stranded sas-4 RNA was generated as described ([Oegema et al., 2001]) using DNA templates prepared by PCR. For experiments to quantify monopolar spindle formation, L4 hermaphrodites were injected with dsRNA and incubated at 20°C for 40 hr prior to dissection for imaging. For lethality assays, worms were maintained at 20°C. L4 hermaphrodites were injected with dsRNA and singled 24 hr post-injection. Adult worms were removed from the plates 48 hr post-injection, and hatched larvae and unhatched embryos were counted 24 hr later. […]

The subject of experiment [3] is centrioles in sas-4(RNAi) C. elegans embryos. Briefly: Localisation of SAS-4::GFP in absence of endogenous protein. The class given is in vivo.
From the text: as §1, §2

In experiment [4] the test system is SAS-5 N-terminal domain (aa 1–202). Briefly: Ni-NTA pull-down of 35S-labelled SAS-4 fragments by SAS-5. The following applies: 25 mM HEPES, 100 mM NaCl, pH 7.4, 4°C, 30 min; SAS-5-6xHis bait on Ni-NTA. In kind it is binding, C. elegans. The method, then:
SAS-4 constructs were cloned into a pET21a vector for in vitro transcription/translation. Proteins were expressed using the T7 TNT Quick Coupled Transcription/Translation System (Promega, Fitchburg, WI) with ^35S-Met labelling.
SAS-5 fragments were cloned into a pRSET-A vector with a C-terminal 6xHis tag. Proteins were expressed in E. coli Rosetta2(DE3) cells and purified on Ni-NTA agarose (Qiagen) using standard protocols. For pull-down experiments, proteins were dialysed into 25 mM HEPES, 100 mM NaCl, 20 mM imidazole, 1 mM DTT, 10% sucrose, 0.02% Tween-20, pH 7.4.
SAS-5 fragments were pre-incubated with 20 μl Ni-NTA beads for 45 min at 4°C. 10 μl of the SAS-4 IVTT product was added to the beads with 190 μl buffer and incubated at 4°C for 30 min. The beads were washed with 3 × 200 μl buffer and resuspended in 100 μl SDS-PAGE sample buffer. Samples were run on 10% SDS-PAGE gels and either stained with Coomassie or dried and exposed to a phosphor screen overnight. Phosphor screens were analysed on a Personal Molecular Imager System (Bio-Rad, Hercules, CA).

The target of experiment [5] is T1, Danio rerio CPAP^937–1124 TCP domain, WT (Danio rerio, UniProt E7FCY1 937-1124).
T1 construct: remnant of the cloning and protease cleavage sites at the N-terminus; also called TCP domain of D. rerio CPAP; G-box; source: E. coli BL21 (DE3) Rosetta, purified (NiNTA, proteolytic tag cleavage, optionally size exclusion, ion exchange); not shown: His tag, N-terminal, cleaved
T1 sequence: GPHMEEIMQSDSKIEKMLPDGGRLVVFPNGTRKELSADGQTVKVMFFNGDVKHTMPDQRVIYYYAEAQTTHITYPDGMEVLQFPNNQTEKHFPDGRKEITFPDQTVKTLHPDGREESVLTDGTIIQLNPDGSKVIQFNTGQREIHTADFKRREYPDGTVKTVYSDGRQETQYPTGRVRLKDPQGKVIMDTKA
Briefly: crystal structure; D. rerio CPAP^937–1124 with D. rerio STIL^408–428, protein/peptide mixture; 100 mM Tris pH 8.5, 200 mM CaAcetate, 17% PEG-2000 MME, 19.5°C. The following applies: both partners purified.

In experiment [6] the target is T2, Drosophila melanogaster DSas-4 (dCPAP) TCP domain, residues 700–901 (Drosophila melanogaster, UniProt Q9VI72 700-901).
T2 construct: source: E. coli B834 (DE3), purified (NiNTA, proteolytic tag cleavage, size exclusion), as a fusion with dSTIL^1–47
T2 sequence (looked up): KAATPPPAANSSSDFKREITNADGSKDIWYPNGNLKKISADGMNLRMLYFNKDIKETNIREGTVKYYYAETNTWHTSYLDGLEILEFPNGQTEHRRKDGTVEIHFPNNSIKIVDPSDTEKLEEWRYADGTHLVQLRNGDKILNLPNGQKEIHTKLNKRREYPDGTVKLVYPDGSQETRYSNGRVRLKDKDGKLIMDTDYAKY
In words: crystal structure; D. melanogaster dSTIL^1–47 fused to the N-terminus of dCPAP^700–901 on one chain; sitting drop, Morpheus screen. The following applies: both partners purified.

B1: SAS-4^WT::GFP: C. elegans WT SAS-4 (aa 1–808) GFP fusion, RNAi-resistant transgene (protein, UniProt P34402 1-808, looked up)
chain: MASDENIGADGEQKPSRPFLRKGQGTARFRMPRNNKTSAGAPPTSELSSASSPSINVPRFSLSNALPNSARTVDSGISNEDETRPPTTASLPMDQPSLSSSPENRLNPAPSVAEEHGHSGQHAEEEEDNDTDEVSAMPSFVPDEPSTLVNSDHELSDDALKYKNAAAEFKAFERRMDSMRSASTITTSLATPSSCAPSNSSEPPTRSTPIMNDLGVGPNNHNWPSSMQELSGISLETPQARPLGSNRINQLVRSEAQTGISLLQHHERPTVTAPLRRNDMMNSSRQNPQNGNVQDENRPEHVYDQPIHVPGSSLDRQKLEIEIRRHRNLNIQLRDTIAHLDYAEESVHTTKRQLEEKISEVNNFKKELIEEFKKCKKGVEEEFEKKFEKIKEDYDELYEKLKRDQRDLERDQKILKKGTGERNKEFTETIATLRDKLRASETKNAQYRQDIRVRDEKLKKKDEEIEKLQKDGNRLKSTLQTLEKRVKQLRTEKERDDKEKEMFAKVAMNRKTSNPVPPVLNQSVPISITSNGPSRHPSSSSLTTFRKPSTSNRERGVSWADEPNEQSLEAVPQEFLMMPVKEMPGKFGKCTIYRDSLGETSKVTDTIANGLLFEYSNGDLRWVNRQNAVNIYISAVDKTVRIDLPTYNISIIHTFQRQVEVLRPGNNITLISIKRREVRTDLIYQNGMYKTEIFNRDGRYVTKDFSNQEVSRKYNPGTHTYRDNQCRYVLVTDYNDFELVEPEFRLRWYQGDPTGLNNQYILKIIGRPECSEKTLRLEVNLSTCEGTLETAEMIGDKRRKTTLFQWKK
modifications: full-length GFP fusion
notes: C. elegans WT SAS-4 (aa 1–808) GFP fusion, RNAi-resistant transgene
B1: in experiment [1], the “rescue of embryonic viability” value is recorded as “fully rescued”. Moreover, the “rescue of monopolar spindle phenotype” value in experiment [2] is “fully rescued”. Also, the centriole targeting entry in experiment [3] is “targeted to centrioles”.

B2: full-length SAS-4: in vitro translated full-length C. elegans SAS-4, 35S-labelled (protein)
chain: MASDENIGADGEQKPSRPFLRKGQGTARFRMPRNNKTSAGAPPTSELSSASSPSINVPRFSLSNALPNSARTVDSGISNEDETRPPTTASLPMDQPSLSSSPENRLNPAPSVAEEHGHSGQHAEEEEDNDTDEVSAMPSFVPDEPSTLVNSDHELSDDALKYKNAAAEFKAFERRMDSMRSASTITTSLATPSSCAPSNSSEPPTRSTPIMNDLGVGPNNHNWPSSMQELSGISLETPQARPLGSNRINQLVRSEAQTGISLLQHHERPTVTAPLRRNDMMNSSRQNPQNGNVQDENRPEHVYDQPIHVPGSSLDRQKLEIEIRRHRNLNIQLRDTIAHLDYAEESVHTTKRQLEEKISEVNNFKKELIEEFKKCKKGVEEEFEKKFEKIKEDYDELYEKLKRDQRDLERDQKILKKGTGERNKEFTETIATLRDKLRASETKNAQYRQDIRVRDEKLKKKDEEIEKLQKDGNRLKSTLQTLEKRVKQLRTEKERDDKEKEMFAKVAMNRKTSNPVPPVLNQSVPISITSNGPSRHPSSSSLTTFRKPSTSNRERGVSWADEPNEQSLEAVPQEFLMMPVKEMPGKFGKCTIYRDSLGETSKVTDTIANGLLFEYSNGDLRWVNRQNAVNIYISAVDKTVRIDLPTYNISIIHTFQRQVEVLRPGNNITLISIKRREVRTDLIYQNGMYKTEIFNRDGRYVTKDFSNQEVSRKYNPGTHTYRDNQCRYVLVTDYNDFELVEPEFRLRWYQGDPTGLNNQYILKIIGRPECSEKTLRLEVNLSTCEGTLETAEMIGDKRRKTTLFQWKK
modifications: ^35S-Met labelling
For the molecule B2, the “interaction with SAS-5 in pull-down” value in experiment [4] is “interacted specifically with the N-terminal domain (aa 1–202) of SAS-5”.

B3: Danio rerio STIL^408–428 (peptide)
chain: GSGVEDEDLSPRPSPNPHPVSQENLYFQ
notes: remnant of the cloning and protease cleavage sites at the N-terminus; remnant of the cloning and protease cleavage sites at the C-terminus; used for crystallisation only; also called STIL peptide; source: E. coli C41 BL21 (DE3), purified (NiNTA, proteolytic cleavage of the His-lipoyl domains, ion exchange); not shown: His-tagged lipoyl domain (Bacillus stearothermophilus dihydrolipoamide …)
With B3, the binding result in experiment [5] is “binds”.

B4: SAS-4^ΔTCP::GFP: C. elegans SAS-4 (aa 1–556) with TCP domain (aa 557–808) deleted, GFP fusion (protein, UniProt P34402 1-556, looked up, fragment)
chain: MASDENIGADGEQKPSRPFLRKGQGTARFRMPRNNKTSAGAPPTSELSSASSPSINVPRFSLSNALPNSARTVDSGISNEDETRPPTTASLPMDQPSLSSSPENRLNPAPSVAEEHGHSGQHAEEEEDNDTDEVSAMPSFVPDEPSTLVNSDHELSDDALKYKNAAAEFKAFERRMDSMRSASTITTSLATPSSCAPSNSSEPPTRSTPIMNDLGVGPNNHNWPSSMQELSGISLETPQARPLGSNRINQLVRSEAQTGISLLQHHERPTVTAPLRRNDMMNSSRQNPQNGNVQDENRPEHVYDQPIHVPGSSLDRQKLEIEIRRHRNLNIQLRDTIAHLDYAEESVHTTKRQLEEKISEVNNFKKELIEEFKKCKKGVEEEFEKKFEKIKEDYDELYEKLKRDQRDLERDQKILKKGTGERNKEFTETIATLRDKLRASETKNAQYRQDIRVRDEKLKKKDEEIEKLQKDGNRLKSTLQTLEKRVKQLRTEKERDDKEKEMFAKVAMNRKTSNPVPPVLNQSVPISITSNGPSRHPSSSSLTTFRKPSTSNRERG
modifications: GFP fusion
notes: C. elegans SAS-4 (aa 1–556) with TCP domain (aa 557–808) deleted, GFP fusion
For B4, the “rescue of embryonic viability” value in experiment [1] was “not by the ΔTCP transgene”. Moreover, the “rescue of monopolar spindle phenotype” value in experiment [2] is “not by the ΔTCP transgene”. In experiment [3], the centriole targeting entry is “did not, and instead exhibited a diffuse accumulation in the pericentriolar material”.

B5: Drosophila melanogaster Ana2 (dSTIL) residues 1–47 (domain or fragment, UniProt Q9XZ31 1-47, looked up)
chain: MFVPETEDMLPRLAPRPSAAVPMGHTNEIIGPTVPEVSILFGQPPQD
notes: Ana2 (dSTIL), Drosophila melanogaster, residues 1-47, the region equivalent to CR2; codon-optimised gene; no linker or residues left by tag cleavage are told; also called dSTIL^1–47; dSTIL peptide; not shown: His tag, N-terminal, cleaved
As to B5, the binding result in experiment [6] was “binds”.
